The series in a line: label from the status in PepcDB records.
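Further: failed if final PepcDB status was selected cloned or expressed and not failed if soluble or beyond.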

For “MQGWLVIPVSLAYLGVLFLIAWYGDRQTRWLANWRPWIYSLSIAVYCTSWTFYGTVGQASVNPWSFLPIYIAPILMFVFGWRVLARLILIAKREHITSLADFIAARYGKSQGLAVAVTVIAVLGILPYIALQLRGITMGLNIVAPDLMTVYGYQESHVSWFVVLALALFTMLFGTRHIDNTEHHRGMMMAIAFESIVKLVAFLCVGVFIAYLAWRTDGLELSTIAASTYQAPNWPTLLIHTLLTMIAIVCLPRQFHTMVVENERPQDLHTARWLFPVYLLLMSLFVLPIAWTGQGLLPNTSPDTFVISLPVFAGAHDIALLAFLGGTSAASGMVIVSTIALAIMVSNDLVMPLLLRRMRLSQRTHRHFSGLLVVIRRTLILLLLFGAWGFYLVLDSIPSLSAIGFLSFSAITQFAPAIFGGMYWREGNRKGVYVGLAVGFTLWLITLMSATDMLAGDASNNVLLWVITPPDWLVALGLKSADWGMLLSVTLNTLCYIGVSLVTRASLSERLQAAAFVGTPLPENENMSLYQSRVTVGELEMLASRFVGRTRVRNAFAQYWSQQRETLLPNQQASSALIRHTERVLAGVFGASSAKLVLTSALQGRKMQLEEVATIVDEASELYDFSRGLLQGAIEHIGQGIAVVDKQLRLVAWNQRYLELFEFPPGLIQVGRPIADVIRHNAQQGLCGPGDPEDHVRRRVYHLEQGTSHTSSRVRADGRVIEVQGNPMPGGGFVMSFTDITVFREAEQSLKMANETLEERVLQRTLELEKLNKQLVTATQRSERESQSKSRFLAAVSHDLMQPLNAARLFASSLSEVAKEAEVQKLAHHIESALGAAEDLISDLLDISRLESGKIDLHPHSFAIMDVLSNLNAEFSALAAKQGVQFSLVPSLLWVHSDPKLLRRVIQNFLTNAFRYNPNGKVILGVRRVATGQVRIDVWDNGIGIEQDKQQEIFEEFNRGGQVRSDQGLGLGLAISKGIAHVLGHHISMRSWPGQGSVFSITLDRAQPMPSSLTQTVAMVNEKGSELQHLRVLCVDNEPDILVGMRDLLERWGCEVKTATDIHGSLKALEGQWIPDVILSDYRLDNGRTGLEVLQQCRLRLGDCFAGVIISADRNPDILDGIESSGFRFMAKPIKPLKLRALLNSLS”, the protein production entry is “failed”.

Turning to “MQHLREWLSDWFRRILPNAQAVSFAILLVVGFIVVVSLAKMLMPVFAAGIIAYLLDGLVEIGERRKLPRLVSVIVVYLLFLALLLVVFIGLLPLLYQQTLQLIEQAPSWVNRGQVLIMELPERYPDYITQEQVNDLIGAIRAELISYGQSMLTYSYASLVSLITVVVYFILVPLLVFFFLKDRDRILGWFTQYLPRDRNLSNRVWKEVDMQIGNYVRGKFVEIVILFAASFVTFSLMGLNYALLLAVLMGISVIIPYVGATLVTFPVMIVAFFQWGVSDDFWYLMLAYAIIQALDGVMLVPLLFSEVVNLHPVAIIVAILFFGGWWGFWGVFFAIPLATLVKAVLSAWPRLGEGEMPAAGGP”, the protein production entry is “failed”.

Take “MQIRVYDEGAVQDCLFVLGWGNRCRHRTVQWLIDQLTTAYRVHAVELPTHITDYRREWVGPVQEYAADLGRFDLLGHSAGGLTAAHLDADGIGNRVYLSPWWDSDFPVPGPVLDAIASLPITKPFIPIDTLDADAIGDLATAQQLAEAPSSVSPAFLRTVFRAQRSLPPARDTAAAFCSLTDTVVDPRAVGERLPADRIRLYDGGHELFSSSGREDTAETVIDTLQHGPDAL”: the protein production result is on record as “failed”.

Regarding “MQIVTDKNKVALYYKDIAVTYKEFILNTKKIKQFTKIKEFTNNMIYMENRPELLYSFFAIWDSRATCVCIDASSTAVELTYYIDNSDVVKIFTTKMQVEKVKGALSILSKQIEIIVVDEINLSEIKIDENSSENLVINSPEKEDTALILYTSGTTGKPKGVMLTFDLEHHHHHH”, the protein production result is on record as “failed”.

Regarding “MQKFFQRIWQWIQQLFAPLVGGPGPGTKSLQELPPLSDTDYEFLFNQLLEGIAHGWHEGRILKFFQQLDHRCRPKQWLDWLDRFQTTVLASPSPNLVLAARMMRLGELAQSFPQIAPIGDKSQRIGRELYARQSPPQMDTVWEYDGPDLVSIDQAQGQMETFTFDELVQRLPQDAALATHFAGFLGIESTDPQVILRALMEKFAIPEEMLTEALNHGGESSSAPVDSLVEDQGTASALAQEELWPLVDPVTIDNSQFENNQEPHTAEDWLNLGIQQAQRGELETAIASWGEAISLNPQMTSAWQNRGSALGVMGKLEEALANFDEALAQNPDDAEVWLSRGLLLEAMERKEEAIPSYEKALTLEPTLPEAQERLEELQGLLSQD”, the protein production result is on record as “failed”.

As for “MQKLTRINDFNEVLNSRKSVKVFDENYKIPREEMDEIITKATKAPSSVNMQPWRIAVVQSDEMKEKVKESFGFNSRQLTTSSAMLIIFGDLQNYEKAEQIYGDAVEQQLMTEDIKAQLLDWILPYYKNLSREGMKDIVNIDSSLMAMQLMLTAKAHGYDTNPIGGFDKENIADIIGYDSDRYVPVLAIAIGKKAQDAHDSVRLPIDDVREFL”, the protein production entry is recorded as “not failed”.

In the case of “MQKVVLATGNVGKVRELASLLSDFGLDIVAQTDLGVDSAEETGLTFIENAILKARHAAKVTALPAIADDSGLAVDVLGGAPGIYSARYSGEDATDQKNLQKLLETMKDVPDDQRQARFHCVLVYLRHAEDPTPLVCHGSWPGVITREPAGTGGFGYDPIFFVPSEGKTAAELTREEKSAISHRGQALKLLLDALRNG”, the protein production entry is “not failed”.

On to “MQLALVLSELGEYQVSNQWLLKIIHDLDETMYDCLYFLANNYACLGLFREATQYAEQYLTCESDGEFADDAADLLELLKLDRHDVSEEQEQLITMQERARHLLEQERFAEAIEALEAIVSRYPEFWSAHNNLALAYFYNGDVERAKQKLLEVLKRDPGNLHALCNALVFAYYLHDQEEVAALCETLASVYPFFREHQYKLGATFALVGRFDSAFRWLYRLYKNGFDGDGPFYYWLAYSAYHIGHESLARQVWETLTTLHPEKLEHHHHHH”, for which the protein production result is “failed”.

With “MQLINLRYISNWRVLLIAVVVLLCLLLSSQLGVVKPYEIVDPLDILGEGSTLFLTILIVIFMVTDRPRGNVTNLFYSGGLLLIFSMTLDVLDEFFRYPDALRLLSWLESFPLPVGLIIISFAAAEWRRENKMLSRQLMVREKNLRSHQWVDPLTSLYTTPYFIKLVEREIALQNSTDAESTVLVSVNFKNFAQYNHEMGTKAGDELLHQASELMVLLLRPQDCLCREHSDHFLILLPQTRLSQADRLMKVIAQNLNSELELPNYMSVEVHTHRVEELSAVDAITALHTQVEEMTHYAPLAN”, the protein production entry was “failed”.

Regarding “MQLRTKLVIYSTVCCAFGVLLTLATMKYLFSTSSPEVATPATLPDVQLPELDLAQLQDSVAAIESAIKNTEQFQQAFSLQERLRADQIKHELQKLEQLKQEQLQIKLYKLELLKQGLFNPAPHPANMVPALPVVEQSKLPPLSLDPQAEHTPPIFELVLVILLACSVCALGVAWFTRHLARSLDALEVGLLNFNDNDFSVSIPTNGEGQLKTLAELFNHSAAKLRQERQYIYQRELLLDKVIQSSPNVMLLLNDHQRLMYANDAARHLFQIKGKMEGLSLEELLQELPEALALALKQEKSGLFTMGEDDAETWYLSRGQFLLNNQQHNLILLKQMTRELNRQEVAVWKKVIRIISHELNNSVAPIASMVNSGRLLTKDLDNPKLKLIFDTIESRTNHLSQFIYNYARFAKLPLPQRRKVAWSQLIEQLTQHYPFSLTHELPIEDGYVDQGQMEQVLLNLLKNAHESGSNPEEVTLSIRYQKMVDGGGFSIKIEDRGSGMSEEVLEQALLPFYSTKQSGTGLGLPLCREIIEAHDGSISMHNRTEGGLSVLLWLPQ”, the protein production result is listed as “failed”.

Turning to “MQLYYLGPKGTFSYLACRQYFSENEATFQPKSNLFEVIKAVADDDTSIGVVPIENSIEGTINIVADALAQQDVFAHGEIRLDINFALYGNGTDSISDIKKVYSIAPAISQTTNYIHQHQFDYDYVDSTIQSLTKIENGVAAIAPLGSGEAYGFTPIDTHIEDYPHNVTRFLVIKNQQQFDQNATSLMFLITPMHDKPGLLASVLNTFALFNINLSWIESRPLKTQLGMYRFFVQADSAITTDIKKVIAILETLDFKVEMIGAFN”, the protein production entry is “not failed”.

For the sequence “MQMLSRIHRETCSQDVNECGMKPRPCQHRCVNTHGSYKCFCLSGHMLMPDATCVNSRTCAMINCQYSCEDTEEGPQCLCPSSGLRLAPNGRDCLDIDECASGKVICPYNRRCVNTFGSYYCKCHIGFELQYISGRYDCIDINECTMDSHTCSHHANCFNTQGSFKCKCKQGYKGNGLRCSAIPENSVKEVLRAPGTIKDRIKKLLAHKNSMKKKAKIKNVTPEPTRTPTPKVNLQPFNYEEIVSRGGNSHGGKKGNEEKMKEGLEDEKREEKALKNDIEERSLRGDVFFPKVNEAGEFGLILVQRKALTSKLEHKDLNISVDCSFNHGICDWKQDREDDFDWNPADRDNAIGFYMAVPALAGHKKDIGRLKLLLPDLQPQSNFCLLFDYRLAGDKVGKLRVFVKNSNNALAWEKTTSEDEKWKTGKIQLYQGTDATKSIIFEAERGKGKTGEIAVDGVLLVSGLCPDSLLSVDD”, the protein production result is “failed”.

Turning to “MQMMSELFASGTVVDAVLIFLLVEAIGVIGYWLWRKHGIAPADFLPGMISGALMLLALRAVLAGAGWMVPTLCLLAAGGAHLVDVLRRWR”, the protein production result is recorded as “failed”.

Take “MQMNSEKFFKLFRVGETVLVEYSGTSRAELLLYYIVNNSKLPIVVDDILDTYYEFYTRLKVAGFDVAPLENVQVIKMGGTKDIGRVIGRLNISKYVISEQEYMEIVSQLKDYPVINPVLGLHKLILLGNTFENINVVKMVSNYVGREERIAFYFVNRNVIEKHSSPILDLLEEVVTSILEITDSGIIIKKSIKDEIAGKIVSPLLNF”: the protein production result is listed as “not failed”.

On to “MQNKARKNYIIYVLMLLLFGGLIYVAIEEGDRFSHHAANTLNTVQDGPFAMFLQFMQDNLHHPLTTLLIQIIAVLLMVRLFGYLFSLIGQPGVIGEIVAGIVLGPSVLGLFFPEAFHFLFPVHSLTNLELLSQVGLILFMFVIGMELDFSVLKNKINETLVISHAGILVPFFLGILSSYWIYETYAADHTPFLPFALFIGISMSITAFPVLARIIQERNMTKTPLGTLAIASAANDDVTAWCLLAVVIAISKAGSFASALYSVGLAVAYIAVMFLVVRPFLKKVGEVYANKEAINKTFVAFILLILIISSCLTEIIGIHALFGAFMAGVVMPSNLGFRKVMMEKVEDISLVFFLPLFFAFTGLRTEIGLINSPELWMVCLLLVTVAIVGKLGGCAIAARLVGESWKDSLTVGTLMNTRGLMELVALNIGYEMGVLPPSIFVILVIMALVTTFMTTPLLHLVERFFVHREEKLSLKRKLIFCFGRPESGRSLLSIYDLLFGKQLKKEHVIAAHYTVGTDLNPLDAQHYESESFALLNQRAVELNIQVDNHYRVTDKLVQEMIHFIRKEHPDMLLLGAGSHYRPEMPGTPGAILWLTLFRDKIDDIMEQVKCPVAVFVNRNYREGALVSFVLGGMIDVFLLSYLNIMLQNGHSVRLFLFETDDEEFHQCIDDLLAHYADQIVVVWFAGVEELVTKERDGLLVMSHLSYTKLSEDELVMRELSSLLVIRRNKNKGEKNERLEIG”, for which the protein production result is recorded as “failed”.

Source of the values: a protein production outcome set (Wang et al. 2014).
